According to the supplement of paper PMC9112550, “Optimization of the antimicrobial peptide Bac7 by deep mutational scanning” (BMC Biology, 2022):

tested on: Escherichia coli TOP10; assay: shrunken log2 fold change of peptide-encoding DNA abundance (4.5 h post-induction vs induction); higher = less antimicrobial activity (less host growth inhibition); conditions: time post-induction: 4.5 h; library: site-saturation at positions 5, 18, 19, 20
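Further: peptides expressed intracellularly from a pBAD plasmid library in pooled LB shake-flask culture, induced with 0.3% L-arabinose, DNA abundance read by NGS, three biological replicates, DESeq2 with apeglm shrinkage.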

Row | Sequence | shrunken log2 fold change
1 | RRIRPRPPRLPRPRPRPRTDPRP | 0.165
2 | RRIRHRPPRLPRPRPRPVWGPRP | 0.479
3 | RRIRVRPPRLPRPRPRPFAWPRP | 0.384
4 | RRIRWRPPRLPRPRPRPWPCPRP | 0.0272
5 | RRIRNRPPRLPRPRPRPATKPRP | -0.0346
6 | RRIRKRPPRLPRPRPRPPPSPRP | 0.911
7 | RRIRRRPPRLPRPRPRPAAAPRP | 0.941
8 | RRIRKRPPRLPRPRPRPSEQPRP | 0.0244
9 | RRIRDRPPRLPRPRPRPIQVPRP | -0.0916
10 | RRIRKRPPRLPRPRPRPGKQPRP | 0.599
11 | RRIRARPPRLPRPRPRPMDWPRP | 0.341
12 | RRIRGRPPRLPRPRPRPHCFPRP | 0.233
13 | RRIRTRPPRLPRPRPRPAMQPRP | -0.00933
14 | RRIRARPPRLPRPRPRPDDIPRP | 0.0386
15 | RRIRDRPPRLPRPRPRPNRNPRP | -0.227
16 | RRIRQRPPRLPRPRPRPNGEPRP | 0.0404
17 | RRIRRRPPRLPRPRPRPPLLPRP | 0.675
18 | RRIRCRPPRLPRPRPRPDKVPRP | -0.224
19 | RRIRKRPPRLPRPRPRPCYSPRP | -0.178
20 | RRIRIRPPRLPRPRPRPCYGPRP | -0.202
21 | RRIRSRPPRLPRPRPRPDQVPRP | -0.0236
22 | RRIRFRPPRLPRPRPRPVHHPRP | -0.00203
23 | RRIRYRPPRLPRPRPRPDSMPRP | 0.00804
24 | RRIRLRPPRLPRPRPRPNLSPRP | -0.548
25 | RRIRHRPPRLPRPRPRPLRHPRP | -0.132

Row | Sequence | shrunken log2 fold change
26 | RRIRARPPRLPRPRPRPKDLPRP | -0.0598
27 | RRIRLRPPRLPRPRPRPIWSPRP | -0.256
28 | RRIRCRPPRLPRPRPRPDKMPRP | -0.156
29 | RRIRCRPPRLPRPRPRPLLDPRP | 0.0618
30 | RRIRYRPPRLPRPRPRPGGAPRP | 0.359
31 | RRIRRRPPRLPRPRPRPSQDPRP | 0.112
32 | RRIRWRPPRLPRPRPRPIDAPRP | 0.0128
33 | RRIRARPPRLPRPRPRPAEFPRP | 0.304
34 | RRIRERPPRLPRPRPRPESLPRP | 0.0354
35 | RRIRRRPPRLPRPRPRPRTDPRP | 0.438
36 | RRIRQRPPRLPRPRPRPQLRPRP | -0.165
37 | RRIRTRPPRLPRPRPRPTPWPRP | 0.411
38 | RRIRVRPPRLPRPRPRPGCMPRP | -0.076
39 | RRIRNRPPRLPRPRPRPRTAPRP | -0.0352
40 | RRIRHRPPRLPRPRPRPELGPRP | -0.101
41 | RRIRGRPPRLPRPRPRPNKAPRP | 0.454
42 | RRIRHRPPRLPRPRPRPHSKPRP | -0.32
43 | RRIRMRPPRLPRPRPRPLNMPRP | -0.0641
44 | RRIRDRPPRLPRPRPRPGEHPRP | 0.0372
45 | RRIRSRPPRLPRPRPRPQFHPRP | -0.206
46 | RRIRFRPPRLPRPRPRPGGDPRP | 0.37
47 | RRIRFRPPRLPRPRPRPMTTPRP | 0.000405
48 | RRIRHRPPRLPRPRPRPVGGPRP | 0.417
49 | RRIRIRPPRLPRPRPRPCILPRP | -0.55
50 | RRIRYRPPRLPRPRPRPKLEPRP | 0.00557

Row | Sequence | shrunken log2 fold change
51 | RRIRIRPPRLPRPRPRPYKFPRP | -0.616
52 | RRIRHRPPRLPRPRPRPFEMPRP | -0.505
53 | RRIRARPPRLPRPRPRPVISPRP | 0.0798
54 | RRIRTRPPRLPRPRPRPYAWPRP | -0.0721
55 | RRIRVRPPRLPRPRPRPNWSPRP | -0.114
56 | RRIRRRPPRLPRPRPRPQTGPRP | 0.0354
57 | RRIRRRPPRLPRPRPRPPTNPRP | 0.643
58 | RRIRLRPPRLPRPRPRPKWMPRP | -0.00339
59 | RRIRYRPPRLPRPRPRPALVPRP | 0.112
60 | RRIRTRPPRLPRPRPRPNYYPRP | -0.66
61 | RRIRARPPRLPRPRPRPHRKPRP | -0.000548
62 | RRIRWRPPRLPRPRPRPHPCPRP | 0.12
63 | RRIRLRPPRLPRPRPRPDWPPRP | -0.0804
64 | RRIRCRPPRLPRPRPRPTQFPRP | 0.167
65 | RRIRPRPPRLPRPRPRPINLPRP | -0.994
66 | RRIRQRPPRLPRPRPRPKWQPRP | 0.0435
67 | RRIRCRPPRLPRPRPRPQHTPRP | -0.0159
68 | RRIRMRPPRLPRPRPRPEYEPRP | 0.644
69 | RRIRQRPPRLPRPRPRPMNMPRP | 0.0227
70 | RRIRLRPPRLPRPRPRPGVMPRP | 0.0751
71 | RRIRQRPPRLPRPRPRPARTPRP | 0.167
72 | RRIRTRPPRLPRPRPRPMQHPRP | -0.112
73 | RRIRGRPPRLPRPRPRPTTYPRP | 0.214
74 | RRIRHRPPRLPRPRPRPHWMPRP | -0.785
75 | RRIRYRPPRLPRPRPRPRCTPRP | -0.407
